The target in assay [1] is CHIKV strain 181/25 (virions; also E2-E1 shown on infected cells) (chikungunya virus). The experiment in a line: cryo-EM of infectious CHIKV with Mxra8.
The target of assay [2] is CHIKV virus-like particles (strain 37997) (chikungunya virus). The experiment in a line: SPR, […], kinetic fit ([…].
Assay [3] has the same target.
The target is the same in assay [4]. The source holds these as a separate data set.
Assay [5] has the same target. This is another data set of the same source.
For assay [6] the target is unchanged. The source holds these as a separate data set.
Assay [7] shares this target. The source holds these as a separate data set.

“And” between values parts separate entries of the source, which are not always exact repeats. Equal entries are not always repeated. Where two headings read alike, the source gives them in different places.

Broadly, the Kd is a measure of binding affinity in units of concentration. A low value points to higher affinity. One may read the kon as a measure of how fast the partners come together. Lower therefore signals slower complex formation. Substance “Mxra8 cleaved from Mxra8-HRV-Fc (soluble monomeric mouse Mxra8) (from UniProt Q9DBV4 23-336) (receptor)” returned a Mxra8 proteins bound per particle (proteins per particle) in assay [1] of 60. Besides, the Kd in assay [2] is 83.9 nM and 270 nM; in assay [3], 60 nM and 300 nM; in assay [4] it was 200 nM; in assay [5] it was 183 nM and 224 nM; in assay [6], 84 nM and 270 nM. For the same substance, the kon in assay [5] came out at 37000 M⁻¹ s⁻¹. In assay [5], this substance had a t1/2 of 1.8 min. In assay [7], this substance registered a Mxra8 molecules per virion (molecules per virion) of 240.

These data come from patent US20240124553A1.
